The text below walks through data of patent US20230340152A1 (published 2023).

In experiment [1] the target is T1, CD73 construct with chicken N- and C-terminal domain sequence with human V144 and N185 knocked in (chicken; human).
T1 chain: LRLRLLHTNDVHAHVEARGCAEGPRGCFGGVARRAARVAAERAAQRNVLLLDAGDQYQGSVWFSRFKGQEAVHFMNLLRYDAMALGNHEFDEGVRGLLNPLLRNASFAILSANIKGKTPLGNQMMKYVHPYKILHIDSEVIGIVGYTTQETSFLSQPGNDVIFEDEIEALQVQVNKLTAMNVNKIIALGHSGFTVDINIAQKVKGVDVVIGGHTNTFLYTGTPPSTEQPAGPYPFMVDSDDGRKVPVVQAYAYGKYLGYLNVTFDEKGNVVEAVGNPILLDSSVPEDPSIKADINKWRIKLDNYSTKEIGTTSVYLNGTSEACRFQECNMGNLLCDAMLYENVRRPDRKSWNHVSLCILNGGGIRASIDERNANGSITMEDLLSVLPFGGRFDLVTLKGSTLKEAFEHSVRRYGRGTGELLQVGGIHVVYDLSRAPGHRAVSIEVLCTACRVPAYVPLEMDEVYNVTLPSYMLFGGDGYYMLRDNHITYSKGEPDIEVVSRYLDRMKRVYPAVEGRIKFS
Description: SPR (ProteOn), CD73 variant immobilized. As for the experimental part: Binding of MEDI9447 to wild-type and mutant CD73 proteins was measured by surface plasmon resonance (SPR) using a ProteOn instrument (BioRad). CD73 crude cell supernatant protein samples were diluted to 3 µg/ml in PBS, 0.005% Tween-20, pH 7.4 (BioRad) and immobilized to ~400 RU on a HTG tris-NTA sensor chip (BioRad) pre-activated with 10 mM NiSO₄, 10 mM MES, pH 6.0 (BioRad). An equivalently diluted crude cell supernatant sample from non-transfected cells was included as a reference channel control. Sensorgrams were recorded by flowing two-fold dilutions of MEDI9447 prepared in PBS, 0.005% Tween-20, pH 7.4, ranging from 5 nM to 0.31 nM. […] Antibody binding was measured at a flow rate of 100 µL/min with a 3 min association phase and 20 min dissociation phase. The sensor chip surface was regenerated between each run by an 800 s injection of 300 mM EDTA, pH 8.5 (BioRad) at a flow rate of 30 µL/min. Binding kinetics were analyzed using the ProteOn data analysis software. Double referencing was performed and, unless noted otherwise, a 1:1 Langmuir binding model was utilized to fit the data. Some CD73 variants containing mutations within the amino acid region 171-188 fit poorly to a 1:1 model (i.e., Chi² values >10% of Rmax). Where noted, these variants were fit with a heterogenous antigen (2:1) model. […]

Experiment [2] addresses T2, Cynomolgus CD73 ECD (cynomolgus, UniProt A0A2K5V5U7 27-549).
T2 construct: extracellular domain; also called cyno CD73
T2 sequence: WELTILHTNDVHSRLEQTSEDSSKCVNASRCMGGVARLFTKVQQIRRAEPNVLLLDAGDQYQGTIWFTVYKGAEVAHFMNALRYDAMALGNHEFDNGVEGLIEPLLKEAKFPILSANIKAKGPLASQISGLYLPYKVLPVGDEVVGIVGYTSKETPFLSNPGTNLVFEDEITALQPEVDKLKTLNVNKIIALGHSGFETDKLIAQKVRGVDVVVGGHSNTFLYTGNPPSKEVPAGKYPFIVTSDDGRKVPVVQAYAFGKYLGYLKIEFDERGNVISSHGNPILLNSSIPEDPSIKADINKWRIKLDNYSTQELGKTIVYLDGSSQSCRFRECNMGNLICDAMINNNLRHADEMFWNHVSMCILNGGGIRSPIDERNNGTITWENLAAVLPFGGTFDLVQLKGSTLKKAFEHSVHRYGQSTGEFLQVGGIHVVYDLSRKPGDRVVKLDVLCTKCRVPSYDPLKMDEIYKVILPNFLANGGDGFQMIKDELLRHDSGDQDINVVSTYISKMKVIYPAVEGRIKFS
Description: SPR (Proteon).

The target of experiment [3] is T3, Murine CD73 on cells (4T1, Jurkat mCD73 knock-in) (murine, UniProt Q61503 29-551).
T3 construct: whole, on cells; also called 4T1 (murine)
T3 sequence (looked up): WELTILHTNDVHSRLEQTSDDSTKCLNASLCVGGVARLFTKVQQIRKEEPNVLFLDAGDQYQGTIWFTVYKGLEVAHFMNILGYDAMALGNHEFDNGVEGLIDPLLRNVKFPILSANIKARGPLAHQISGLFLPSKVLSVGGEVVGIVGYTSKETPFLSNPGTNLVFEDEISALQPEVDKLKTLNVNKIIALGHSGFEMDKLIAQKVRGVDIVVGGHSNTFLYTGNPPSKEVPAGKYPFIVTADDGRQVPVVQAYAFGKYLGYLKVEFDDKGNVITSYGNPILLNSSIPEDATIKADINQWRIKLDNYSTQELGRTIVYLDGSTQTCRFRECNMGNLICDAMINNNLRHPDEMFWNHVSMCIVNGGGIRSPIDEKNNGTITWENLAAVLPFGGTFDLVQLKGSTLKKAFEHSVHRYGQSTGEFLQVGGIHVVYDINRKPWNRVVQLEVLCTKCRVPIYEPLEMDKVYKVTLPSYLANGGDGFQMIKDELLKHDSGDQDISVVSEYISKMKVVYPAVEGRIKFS
Description: flow cytometry, 4T1 / 4T1(mCD73 -shRNA). (A flow cytometer gives signals particle by particle.)

B1: MEDI9447 (antibody, human IgG1, lambda, V domains shown)
VH: EVQLLESGGGLVQPGGSLRLSCAASGFTFSSYAYSWVRQAPGKGLEWVSAISGSGGRTYYADSVKGRFTISRDNSKNTLYLQMNSLRAEDTAVYYCARLGYGRVDEWGRGTLVTVSS
VL: QSVLTQPPSASGTPGQRVTISCSGSLSNIGRNPVNWYQQLPGTAPKLLIYLDNLRLSGVPDRFSGSKSGTSASLAISGLQSEDEADYYCATWDDSHPGWTFGGGTKLTVLG
notes: Human IgG1-TM (L234F, L235E, P331S), lambda light chain; also called clone 10.3 antibody; 73combo3
Take B1: the Kd in experiment [1] amounted to 0.079 nM; in experiment [2] it was 0.007 nM. In addition, in experiment [3], the “Mean Fluorescence Intensity Ratio (MFIR)” value stood at 3.9.

One may read the Kd as the free concentration of one partner at which half of the binding sites on the other are occupied at equilibrium, for simple one-to-one binding.
